Test results reported in US20230203200A1.
One block for each binder: values may come before it.

Assays:
[1] = target: CD3 (CD3ε/δ-complex) on T cells (human) (UniProt P07766); test: flow cytometry on Jurkat cells (CD3+, TCRab+), bound TCER stained with a PE-labeled secondary reagent
[2] = target: CD3 (CD3ε/δ-complex) on T cells (human) (UniProt P07766); test: flow cytometry on Jurkat cells (CD3+ and TCRab+), PE-labeled secondary reagent
[3] = target: TCR alpha/beta on Jurkat cells (human); test: as above

Chain of UniProt P07766 (P07766 23-207, stated change not applied, chain 1 of 2): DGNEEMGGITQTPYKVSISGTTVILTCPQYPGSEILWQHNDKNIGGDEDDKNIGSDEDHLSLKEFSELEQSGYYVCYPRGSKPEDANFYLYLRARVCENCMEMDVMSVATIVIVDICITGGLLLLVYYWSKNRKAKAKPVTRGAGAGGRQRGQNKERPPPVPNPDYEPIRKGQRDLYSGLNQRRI
Chain of UniProt P07766 (P04234 22-171, stated change not applied, chain 2 of 2, further chain): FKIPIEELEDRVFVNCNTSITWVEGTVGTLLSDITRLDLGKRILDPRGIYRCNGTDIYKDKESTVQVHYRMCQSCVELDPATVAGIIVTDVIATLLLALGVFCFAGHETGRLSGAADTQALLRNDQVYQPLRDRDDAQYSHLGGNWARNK

EC50 (read off the curve) [1]: 2 nM
EC50 [2]: 2 to 3 nM
B1: PRAME-004 targeting TCER® molecule with the recruiting domains of humanized UCHT1(V17) (protein)
chain 1: QKEVEQNSGPLSVPEGAIASLNCTYSDRGSQSFFWYRQYSGKSPELIMSIYSNGDKEDGRFTAQLNKASQYVSLLIRDSQPSDSATYLCAAVIDNDQGGILTFGTGTRLTIIPNIQNGGGSGGGGDIQMTQSPSSLSASVGDRVTITCRASQDIRNYLNWYQQKPGKAPKLLIYYTSRLHSGVPSRFSGSGSGTDYTLTISSLQPEDIATYFCQQGQTLPWTFGQGTKVEIKEPKSSDKTHTCPPCPAPPVAGPSVFLFPPKPKDTLMISRTPEVTCVVVDVSHEDPEVKFNWYVDGVEVHNAKTKPREEQYQSTYRVVSVLTVLHQDWLNGKEYKCKVSNKALPASIEKTISKAKGQPREPQVYTLPPCRDELTKNQVSLWCLVKGFYPSDIAVEWESNGQPENNYKTTPPVLDSDGSFFLYSKLTVDKSRWQQGNVFSCSVMHEALHNHYTQKSLSLSPGK
chain 2: EVQLVQSGAEVKKPGASVKVSCKASGYSFTGYTMNWVRQAPGQGLEWMGLINPYKGVSTYAQKFQDRVTLTVDKSTSTAYMELSSLRSEDTAVYYCARSGYYGDSDWYFDVWGQGTLVTVSSGGGSGGGGKAGVTQTPRYLIKTRGQQVTLSCSPIPGHRAVSWYQQTPGQGLQFLFEYVHGEERNKGNFPGRFSGRQFSNSSSEMNISNLELGDSALYLCASSPWDSPNVQYFGPGTRLTVTEDLKNEPKSSDKTHTCPPCPAPPVAGPSVFLFPPKPKDTLMISRTPEVTCVVVDVSHEDPEVKFNWYVDGVEVHNAKTKPREEQYQSTYRVVSVLTVLHQDWLNGKEYKCKVSNKALPASIEKTISKAKGQPREPQVCTLPPSRDELTKNQVSLSCAVKGFYPSDIAVEWESNGQPENNYKTTPPVLDSDGSFFLVSKLTVDKSRWQQGNVFSCSVMHEALHNHYTQKSLSLSPGK

fold weaker binding than the UCHT1-based TCER®-molecule [3]: 50 to 100 fold
B2: PRAME-004 targeting TCER® molecule with the recruiting domains of humanized BMA031(V10) (protein)
chain 1: QIQMTQSPSSLSASVGDRVTITCSATSSVSYMHWYQQKPGKAPKRWIYDTSKLASGVPSRFSGSGSGTDYTLTISSLQPEDAATYYCQQWSSNPLTFGGGTKVEIKGGGSGGGGKAGVTQTPRYLIKTRGQQVTLSCSPIPGHRSVSWYRQTPGQGLQFLFEYVHGEERNKGNFPGRFSGRQFSNSSSEMNISNLELGDSALYLCASSPWDSPNVQYFGPGTRLTVTEDLKNEPKSSDKTHTCPPCPAPPVAGPSVFLFPPKPKDTLMISRTPEVTCVVVDVSHEDPEVKFNWYVDGVEVHNAKTKPREEQYQSTYRVVSVLTVLHQDWLNGKEYKCKVSNKALPASIEKTISKAKGQPREPQVYTLPPCRDELTKNQVSLWCLVKGFYPSDIAVEWESNGQPENNYKTTPPVLDSDGSFFLYSKLTVDKSRWQQGNVFSCSVMHEALHNHYTQKSLSLSP
chain 2: QKEVEQNSGPLSVPEGAIASLNCTYSDRGSQSFFWYRQYSGKSPELIMSIYSNGDKKDGRFTAQLNKASQYVSLLIRDSQPSDSATYLCAAVIDNDQGGILTFGTGTRLTIIPNIQNGGGSGGGGEVQLVQSGAEVKKPGASVKVSCKASGYKFTSYVMHWVRQAPGQGLEWMGYINPYNDVTKYAEKFQGRVTLTSDTSTSTAYMELSSLRSEDTAVHYCARGSYYDYDGFVYWGQGTLVTVSSEPKSSDKTHTCPPCPAPPVAGPSVFLFPPKPKDTLMISRTPEVTCVVVDVSHEDPEVKFNWYVDGVEVHNAKTKPREEQYQSTYRVVSVLTVLHQDWLNGKEYKCKVSNKALPASIEKTISKAKGQPREPQVCTLPPSRDELTKNQVSLSCAVKGFYPSDIAVEWESNGQPENNYKTTPPVLDSDGSFFLVSKLTVDKSRWQQGNVFSCSVMHEALHNHYTQKSLSLSP
